Assay results published in patent US20260274985A1 (MYTHIC THERAPEUTICS, published 2026).
Positions count from the first letter of the chain named.

T1: Human TROP2 Protein, His Tag (Acro Biosystems) (human, UniProt P09758 27-274)
T1 construct: Bought protein; also called TACSTD2; not shown: His tag
T1 sequence: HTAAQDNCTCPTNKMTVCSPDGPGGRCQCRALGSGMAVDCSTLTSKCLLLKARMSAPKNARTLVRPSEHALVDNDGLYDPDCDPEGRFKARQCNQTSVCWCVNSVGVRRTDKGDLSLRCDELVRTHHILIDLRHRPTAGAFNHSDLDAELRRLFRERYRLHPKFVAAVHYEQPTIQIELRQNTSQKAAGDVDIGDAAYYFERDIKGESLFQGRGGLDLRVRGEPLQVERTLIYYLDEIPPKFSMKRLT

T2: Human TROP2 Protein, His Tag (human, UniProt P09758 27-274)
T2 construct: Bought protein; also called TACSTD2; not shown: His tag
T2 sequence (looked up): T1 sequence

B1: MYT12441 (hu7E6SVG variant, LCV substitutions at 59, 94 (Ala at 94)) (antibody, V domains shown)
VH: QVQLQESGPGLVKPSETLSLTCTVSGGSISSYGVHWIRQPPGKGLEWIGVIWTSGVTDYNSALMGRVTISVDTSKNQFSLKLSSVTAADTAVYYCARDGDYDRYTMDYWGQGTLVTVSS
VL: DIVMTQSPDSLAVSLGERATINCRASKSVSTSGYSYMHWYQQKPGQPPKLLIYLASNLHSGVPDRFSGSGSGTDFTLTISSLQAEDVAVYYCQASRELPYTFGQGTKLEIK
notes: Full IgG in Expi293 supernatant
B2: MYT12442 (hu7E6SVG variant, LCV substitutions at 59, 97) (antibody, V domains shown)
VH: B1 VH
VL: B1 VL with A94H, E97H
notes: as for B1
B3: MYT12443 (hu7E6SVG variant, LCV substitutions at 59, 101) (antibody, V domains shown)
VH: B1 VH
VL: B1 VL with A94H, T101H
notes: as for B1
B4: MYT12444 (hu7E6SVG variant, LCV substitutions at 60, 93) (antibody, V domains shown)
VH: B1 VH
VL: B1 VL with H59E, S60H, Q93H, A94H
notes: as for B1
B5: MYT12445 (hu7E6SVG variant, LCV substitutions at 60, 94 (Ala at 94)) (antibody, V domains shown)
VH: B1 VH
VL: B1 VL with H59E, S60H
notes: as for B1
B6: MYT12446 (hu7E6SVG variant, LCV substitutions at 60, 97) (antibody, V domains shown)
VH: B1 VH
VL: B1 VL with H59E, S60H, A94H, E97H
notes: as for B1
B7: MYT12447 (hu7E6SVG variant, LCV substitutions at 60, 101) (antibody, V domains shown)
VH: B1 VH
VL: B1 VL with H59E, S60H, A94H, T101H
notes: as for B1
B8: MYT12448 (hu7E6SVG variant, LCV substitutions at 93, 94 (Ala at 94)) (antibody, V domains shown)
VH: B1 VH
VL: B1 VL with H59E, Q93H
notes: as for B1
B9: MYT12449 (hu7E6SVG variant, LCV substitutions at 93, 97) (antibody, V domains shown)
VH: B1 VH
VL: B1 VL with H59E, Q93H, A94H, E97H
notes: as for B1
B10: MYT12450 (hu7E6SVG variant, LCV substitutions at 93, 101) (antibody, V domains shown)
VH: B1 VH
VL: B1 VL with H59E, Q93H, A94H, T101H
notes: as for B1
B11: MYT12451 (hu7E6SVG variant, LCV substitutions at 94, 97 (Ala at 94)) (antibody, V domains shown)
VH: B1 VH
VL: B1 VL with H59E, E97H
notes: as for B1
B12: MYT12453 (hu7E6SVG variant, LCV substitutions at 97, 101) (antibody, V domains shown)
VH: B1 VH
VL: B1 VL with H59E, A94H, E97H, T101H
notes: as for B1
B13: MYT12454 (hu7E6SVG variant, LCV substitutions at 59, 60, 93) (antibody, V domains shown)
VH: B1 VH
VL: B1 VL with S60H, Q93H, A94H
notes: as for B1
B14: MYT12455 (hu7E6SVG variant, LCV substitutions at 59, 60, 94 (Ala at 94)) (antibody, V domains shown)
VH: B1 VH
VL: B1 VL with S60H
notes: as for B1
B15: MYT12466 (hu7E6SVG variant, LCV substitutions at 60, 93, 101) (antibody, V domains shown)
VH: B1 VH
VL: B1 VL with H59E, S60H, Q93H, A94H, T101H
notes: as for B1
B16: MYT12469 (hu7E6SVG variant, LCV substitutions at 60, 97, 101) (antibody, V domains shown)
VH: B1 VH
VL: B1 VL with H59E, S60H, A94H, E97H, T101H
notes: as for B1
B17: MYT12472 (hu7E6SVG variant, LCV substitutions at 93, 97, 101) (antibody, V domains shown)
VH: B1 VH
VL: B1 VL with H59E, Q93H, A94H, E97H, T101H
notes: as for B1
B18: MYT11636 (antibody, V domains shown)
VH: QVQLVQSGAEVKKPGASVKVSCKASHYTFTTAGMQWVRQAPGQGLEWMGWINTHSGVPKYAEDFKGRVTISADTSTSTAYLQLSSLKSEDTAVYYCARSGFGSSYWYFDVWGQGTLVTVSS
VL: DIQMTQSPSSLSASVGDRVTITCKASQDVSTAVAWYQQKPGKAPKLLIYSASYRYTGVPSRFSGSGSGTDFTLTISSLQPEDFAVYYCQQHYITPLTFGQGTKLEIK
notes: IgG from supernatant; His at HCV position 26; also called datopotamab variant H1 01
B19: MYT11637 (antibody, V domains shown)
VH: B18 VH with H26G, Y27H
VL: B18 VL
notes: IgG from supernatant; His at HCV position 27; also called datopotamab variant H1 02
B20: MYT11638 (antibody, V domains shown)
VH: B18 VH with H26G, T28H
VL: B18 VL
notes: IgG from supernatant; His at HCV position 28; also called datopotamab variant H1 03
B21: MYT11639 (antibody, V domains shown)
VH: B18 VH with H26G, F29H
VL: B18 VL
notes: IgG from supernatant; His at HCV position 29; also called datopotamab variant H1 04
B22: MYT11640 (antibody, V domains shown)
VH: B18 VH with H26G, T30H
VL: B18 VL
notes: IgG from supernatant; His at HCV position 30; also called datopotamab variant H1 05
B23: MYT11641 (antibody, V domains shown)
VH: B18 VH with H26G, T31H
VL: B18 VL
notes: IgG from supernatant; His at HCV position 31; also called datopotamab variant H1 06
B24: MYT11642 (antibody, V domains shown)
VH: B18 VH with H26G, A32H
VL: B18 VL
notes: IgG from supernatant; His at HCV position 32; also called datopotamab variant H1 07
B25: MYT11644 (antibody, V domains shown)
VH: B18 VH with H26G, M34H
VL: B18 VL
notes: IgG from supernatant; His at HCV position 34; also called datopotamab variant H1 09
B26: MYT11646 (antibody, V domains shown)
VH: B18 VH with H26G, W50H
VL: B18 VL
notes: IgG from supernatant; His at HCV position 50; also called datopotamab variant H2 01
B27: MYT11647 (antibody, V domains shown)
VH: B18 VH with H26G, I51H
VL: B18 VL
notes: IgG from supernatant; His at HCV position 51; also called datopotamab variant H2 02
B28: MYT11648 (antibody, V domains shown)
VH: B18 VH with H26G, N52H
VL: B18 VL
notes: IgG from supernatant; His at HCV position 52; also called datopotamab variant H2 03
B29: MYT11649 (antibody, V domains shown)
VH: B18 VH with H26G, T53H
VL: B18 VL
notes: IgG from supernatant; His at HCV position 53; also called datopotamab variant H2 04
B30: MYT11650 (antibody, V domains shown)
VH: B18 VH with H26G, H54A
VL: B18 VL
notes: IgG from supernatant; Ala at HCV position 54 (starting residue His); also called datopotamab variant H2 05
B31: MYT11651 (antibody, V domains shown)
VH: B18 VH with H26G, S55H
VL: B18 VL
notes: IgG from supernatant; His at HCV position 55; also called datopotamab variant H2 06
B32: MYT11652 (antibody, V domains shown)
VH: B18 VH with H26G, G56H
VL: B18 VL
notes: IgG from supernatant; His at HCV position 56; also called datopotamab variant H2 07
B33: MYT11653 (antibody, V domains shown)
VH: B18 VH with H26G, V57H
VL: B18 VL
notes: IgG from supernatant; His at HCV position 57; also called datopotamab variant H2 08
B34: MYT11654 (antibody, V domains shown)
VH: B18 VH with H26G, P58H
VL: B18 VL
notes: IgG from supernatant; His at HCV position 58; also called datopotamab variant H2 09
B35: MYT11655 (antibody, V domains shown)
VH: B18 VH with H26G, K59H
VL: B18 VL
notes: IgG from supernatant; His at HCV position 59; also called datopotamab variant H2 10
B36: MYT11656 (antibody, V domains shown)
VH: B18 VH with H26G, Y60H
VL: B18 VL
notes: IgG from supernatant; His at HCV position 60; also called datopotamab variant H2 11
B37: MYT11657 (antibody, V domains shown)
VH: B18 VH with H26G, A61H
VL: B18 VL
notes: IgG from supernatant; His at HCV position 61; also called datopotamab variant H2 12
B38: MYT11658 (antibody, V domains shown)
VH: B18 VH with H26G, E62H
VL: B18 VL
notes: IgG from supernatant; His at HCV position 62; also called datopotamab variant H2 13
B39: MYT11659 (antibody, V domains shown)
VH: B18 VH with H26G, D63H
VL: B18 VL
notes: IgG from supernatant; His at HCV position 63; also called datopotamab variant H2 14
B40: MYT11660 (antibody, V domains shown)
VH: B18 VH with H26G, F64H
VL: B18 VL
notes: IgG from supernatant; His at HCV position 64; also called datopotamab variant H2 15
B41: MYT11661 (antibody, V domains shown)
VH: B18 VH with H26G, K65H
VL: B18 VL
notes: IgG from supernatant; His at HCV position 65; also called datopotamab variant H2 16
B42: MYT11662 (antibody, V domains shown)
VH: B18 VH with H26G, G66H
VL: B18 VL
notes: IgG from supernatant; His at HCV position 66; also called datopotamab variant H2 17
B43: MYT11664 (antibody, V domains shown)
VH: B18 VH with H26G, R98H
VL: B18 VL
notes: IgG from supernatant; His at HCV position 98; also called datopotamab variant H3 02

These binders were tested against T1, Human TROP2 Protein, His Tag (Acro …) (assay: BLI (Octet)).

Q: Does B1 bind?
A: Result: binds

Q: Does B2 bind?
A: Result: binds

Q: Does B3 bind?
A: Result: binds

Q: Does B4 bind?
A: Result: binds

Q: Does B5 bind?
A: Result: binds

Q: Does B6 bind?
A: Result: binds

Q: Does B7 bind?
A: Result: binds

Q: Does B8 bind?
A: Result: binds

Q: Does B9 bind?
A: Result: binds

Q: Does B10 bind?
A: Result: binds

Q: Does B11 bind?
A: Result: binds

Q: Does B12 bind?
A: Result: binds

Q: Does B13 bind?
A: Result: binds

Q: Does B14 bind?
A: Result: binds

Q: Does B15 bind?
A: Result: binds

Q: Does B16 bind?
A: Result: binds

Q: Does B17 bind?
A: Result: binds

The binders below were run against T2, Human TROP2 Protein, His Tag (assay: BLI (Octet)).

Q: Does B18 bind?
A: Result: binds

Q: Does B19 bind?
A: Result: binds

Q: Does B20 bind?
A: Result: binds

Q: Does B21 bind?
A: Result: binds

Q: Does B22 bind?
A: Result: binds

Q: Does B23 bind?
A: Result: binds

Q: Does B24 bind?
A: Result: binds

Q: Does B25 bind?
A: Result: binds

Q: Does B26 bind?
A: Result: binds

Q: Does B27 bind?
A: Result: binds

Q: Does B28 bind?
A: Result: binds

Q: Does B29 bind?
A: Result: binds

Q: Does B30 bind?
A: Result: binds

Q: Does B31 bind?
A: Result: binds

Q: Does B32 bind?
A: Result: binds

Q: Does B33 bind?
A: Result: binds

Q: Does B34 bind?
A: Result: binds

Q: Does B35 bind?
A: Result: binds

Q: Does B36 bind?
A: Result: binds

Q: Does B37 bind?
A: Result: binds

Q: Does B38 bind?
A: Result: binds

Q: Does B39 bind?
A: Result: binds

Q: Does B40 bind?
A: Result: binds

Q: Does B41 bind?
A: Result: binds

Q: Does B42 bind?
A: Result: binds

Q: Does B43 bind?
A: Result: binds
